Values belong to the molecule of their own block, whether it stands above or below them.
How the values were obtained:
CjAfc95A = biological target: T1, CjAfc95A (Cellvibrio japonicus, UniProt B3PBE3); experiment: HPAEC-PAD, fucose release; assay type: biochemical; details: 25 °C; pH optimum 6.5; apparent value, substrate preparation was a two-component mixture of XLFG and XXFG
T1 construct: gene afc95A; full-length (no signal peptide predicted); pET-DEST42 construct with C-terminal tag; recombinant in E. coli BL21(DE3), IMAC purified
T1 sequence (B3PBE3 1-782): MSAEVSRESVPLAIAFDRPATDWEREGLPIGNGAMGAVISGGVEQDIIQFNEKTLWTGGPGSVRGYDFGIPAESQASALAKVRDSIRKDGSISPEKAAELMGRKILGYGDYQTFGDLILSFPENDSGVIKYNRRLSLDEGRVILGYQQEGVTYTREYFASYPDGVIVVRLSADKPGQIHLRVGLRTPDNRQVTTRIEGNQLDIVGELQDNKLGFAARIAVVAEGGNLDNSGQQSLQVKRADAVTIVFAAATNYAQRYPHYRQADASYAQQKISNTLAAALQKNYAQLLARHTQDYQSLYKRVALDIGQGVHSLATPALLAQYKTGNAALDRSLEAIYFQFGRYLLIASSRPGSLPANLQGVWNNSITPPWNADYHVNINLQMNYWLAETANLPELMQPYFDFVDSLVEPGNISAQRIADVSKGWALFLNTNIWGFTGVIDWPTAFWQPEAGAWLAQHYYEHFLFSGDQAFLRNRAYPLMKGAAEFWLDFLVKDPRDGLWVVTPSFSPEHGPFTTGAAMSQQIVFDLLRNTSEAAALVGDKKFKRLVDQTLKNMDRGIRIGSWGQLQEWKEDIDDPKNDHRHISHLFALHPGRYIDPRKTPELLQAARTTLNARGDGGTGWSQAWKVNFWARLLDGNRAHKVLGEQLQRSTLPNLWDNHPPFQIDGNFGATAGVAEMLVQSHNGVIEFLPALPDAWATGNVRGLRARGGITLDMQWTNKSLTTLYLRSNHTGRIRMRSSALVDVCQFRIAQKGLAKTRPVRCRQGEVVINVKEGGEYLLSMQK
Text: HPAEC-PAD, fucose release on CjAfc95A

CjBgl35A = biological target: T2, CjBgl35A (Cellvibrio japonicus, UniProt B3PBE0); experiment: isothermal titration calorimetry; assay type: binding
T2 construct: gene bgl35A; native signal peptide (residues 1-36) excluded; recombinant in E. coli; pET-DEST42 construct with C-terminal tag, or modified pET28a construct with N-terminal His6 tag (crystals); model residues 37-575

purified protein = substrate: O=[N+]([O-])c1ccc(O[C@@H]2O[C@H](CO)[C@H](O)[C@H](O)[C@H]2O)cc1; experiment: purified protein; details: 25 °C, pH optimum 5.5 (acetate)
[1] = substrate: C[C@@H]1O[C@@H](Oc2ccc([N+](=O)[O-])cc2Cl)[C@@H](O)[C@H](O)[C@@H]1O; experiment: continuous chromogenic assay, 2-chloro-4-nitrophenolate release; assay type: biochemical, Cellvibrio japonicus; details: 25 °C, pH optimum 6.5 (citrate)
Text: continuous chromogenic assay, 2-chloro-4-nitrophenolate release on CjAfc95A

B1: CjBgl35A (Cellvibrio japonicus Ueda107) (protein)
chain: APLPELLSNNGKHALMVDGAPYIILGSQTNNSSNYPDALKDVWPSMEKMGANTLSIPVAWEQIEPVEGQFDFSFVDVLLKEARQRKVRLVLLWFATWKNNAPHYAPAWVKLDNARFPRVVKEDGDTLNSLSPLGQNTLAADKKAFVELMKYLAKRDKDHTVIMVQVQNEVGTYGAVRDYSPMAQAVFNAAVPDDLIQKLQLKPGTWSQVFGRDADEFFHAYQIARYCDEVTVAGKAIKNLPMYVNVALRNPFNPGLPGQYSSGGGTDNVLHIWKAAAPNIDLIAPDIYFRDYKTVSKVLELYTRPDNALFVAEIGNDQPFARYLFPTLGKGGIGFSPFGMDDTDYTNYPLGAKVYNDETIEQFAQVYRLVNPMMREWARLSYQGQVWGVAEPLDSTTETQKIWNAEATPEEKEQHKKDRASALTQQLDLGLWDAEVTYGRPMFWVTPPEGNTPAAGGALIAQLDDNEYLVTAYKARVEFKPSQELAGKKFMIERVEEGRFEKGKWVMERVWNGDQTDWGLNFTDRPHLLRVKMASYSVQ
- Km (purified protein): 810 ± 50 µM
- kcat (purified protein): 10.1 s⁻¹
- kcat/Km (purified protein): 12500 M⁻¹ s⁻¹

B2: CjAfc95A (Cellvibrio japonicus Ueda107) (protein)
chain: T1 sequence (B3PBE3 1-782)
notes: full-length (no signal peptide predicted); pET-DEST42 construct with C-terminal tag; recombinant in E. coli BL21(DE3), IMAC purified
- Km [1]: 2100 ± 200 µM
- kcat [1]: 26.5 ± 1.1 s⁻¹
- kcat/Km [1]: 12900 M⁻¹ s⁻¹

Other lines, results leading:

- Km (CjAfc95A): 210 ± 17 µM
Molecule: C[C@@H]1O[C@@H](O[C@H]2[C@H](O[C@H]3[C@@H](OC[C@H]4O[C@@H](O[C@H]5[C@H](O)[C@@H](O)C(O)O[C@@H]5CO)[C@H](O)[C@@H](O)[C@@H]4O[C@@H]4O[C@H](CO[C@H]5OC[C@@H](O)[C@H](O)[C@H]5O[C@@H]5O[C@H](CO)[C@H](O)[C@H](O)[C@H]5O)[C@@H](O[C@@H]5O[C@H](CO[C@H]6OC[C@@H](O)[C@H](O)[C@H]6O)[C@@H](O)[C@H](O)[C@H]5O)[C@H](O)[C@H]4O)OC[C@@H](O)[C@@H]3O)O[C@H](CO)[C@H](O)[C@@H]2O)[C@@H](O)[C@H](O)[C@@H]1O (some centres unmarked) [XLFG]

- Kd (CjBgl35A): 485 ± 42 nM
Molecule: OC[C@H]1NC[C@H](O)[C@@H](O)[C@H]1O [1-deoxygalactonojirimycin, 1,5-Dideoxy-1,5-imino-D-galactitol]
